This passage reports protein production results from a protein production outcome set (Wang et al. 2014).

This series in a line: label from the status in PepcDB records.
For “MLNMSFAPTSLTVSQMSGTRTIRPLTAATLCGIAFIQDRLIAIDSIKGHLLEIDPKTDNSKILNPHQAKEFTDVTGLAVWEDNLWVTRGNSVYVSKLSSLGLEHFVTLPYSADGVAVWESTVYVSCHRLGYILIFDRDTRKEITRFYAPGVGVENLVVNGNTLWVCDRTEQTVYSMDRATGEVIFSVLTPFESPTGIAVHLDAETGKENLYVAYASEEPYIRDNPNADPNHELTYRDRTFIHPLYYHHQPDKHYALSNGYLIEMSYAEEISPLEEVYIPEVEWRIALPSETERQKIRHIEPIGIPFTEEVIDGQRVALFKFDALVPGERHIFGWKALLEVRGIKYRITPKEVENIPELSPEFQERYLVDDDDLAMDTSIVRRAAEEAVGSETNLLRKMYSIRNYVYDELSYGIKPYIDTPDIVLERGIGSCGEYVGVLLALCRLNGIPCRTVGRYKCPPQAEQQGVPLQPDFNHVWLEFYIPGFGWLPMESNPDDLGRGSQYPTRFFMGLCWYHIEIGKGVSFETISSQGKRLTKDDIPIGDLAINHIRFTIVKELPDF”, the protein production result is recorded as “failed”.
In the case of “MSVAAEVAQVAQSAIDDFNAAYGLCLDDDRLEQWPTLFVDDCLYQVIARENVDNGLPAAVMYCDSKGMLADRVVALRKANVFPEHFNRHLIGRAVITGVEGDQVSAEASYVVFQTRNDGETRIYNAGKYVDRFDLSGGTVRLKSRTCIYDTLRIATLLATPI”, the protein production result is “not failed”.
Then “MRKVLFTVALLLTACFVSAQVSVVKEAKSLKSKPEEAAKAIEPALTNPETANDPETWKLAGDFQKAIYDEENMKLYLPGGQADTTKLYNSLAKMYDFYLKCDEIEQAKVQSGELKKPKFRKKNADALKTLRLNLVNGGGDAYNKGDYADALKYFGLFVDVVNEPMFADDDELKADTLNALYACYATLAANMLKDNQAVIKYGNIGKNHKEEGYRALMCLAETYGQKEGGDSAKWLEVIKEGTESFPKQEYFVGNIMDYYIQKGMVDEGLAQINKLLATSETPYYLYVKGILLYEKKQYDDAVAIFNKIISNNGDLVAEAYSKIGDCYFFPAQIIVEENAKLAIDDPKYNENENKIKELYEKAKPYYEKAKELKPDNKALWGNYLLNIYWKLNRAEYDSLEKELGY”, with “failed”; and “MTDFPTSLTSPGNRCEGCQQSQPLGFDFSFAYQPIVDLRDHSVFAHEALVRGVNGEGAGTVLGQVNDSNRYRFDQRCRTQAITLAAQLGMQSHLSINFMPNAVYRPELCIRSTLEAARAQRFPLDRLIFETLESQHVDNYRHLTNILREYREFGFKTAIDDFGSGYSGLNLLADFQPDLIKLDMALVRDVDQDRVRQAIIRAIVTMCAELGVTVIAEGIESAGERDFLSDCGIYLMQGYWFAKPAFKALAEVPAAAWNS”, with “failed”.
The entry for “MSIVIMFKYVSDVSNIYHNIITSFIENKNIAIDATLGNGHDCDFLSELFKKVYAFDIQEEAVNSYKSKNKENVEVILDSHENFETYIKEENVDCIVYNLGYLPGNNKEVTTVAHSTLKSIEIGLDLLGDNGLMIIALYSGHEEGKKEKDAVLQFTSKLPKNKYGVLHTEFTNRAKSAPSLVVIEKKFK” is “failed”.
The entry for “MKVERLSQPAQHLLTAGVENENSFALDTESVFTSAFLRAARGDARSSSRSDVVSLSEIVLEINQSIDELRVEKPAIKMSPQKYLLRNENNAGEFFFIKKARSEGYLQGRTGDPGAGGVDVSGPSDVRIPNRVTIGPDTVLFHPATGAPLLWFVRDGFDYDFFDGSGFHPRTGAKLAPFTKEEALIFEKRIREKEAEIRREAERVEKDRADREARDFAAKEALARKQEEDRKLREAEAARASEAGQRCDELAANPNDRNKVGQGASFSALKAQAADAVKACDLALKQKPSELRFKYQLARALQFSDRPRSFKLHKELVGQGYAASYDNLGWMYYTDRKDKPQAIVLFRQGIQVGDVDSMVSLAELVDRAEATPANASESKIELCRRAAELGHVGAAQCYQVEVAKQEQAEKDRAQQLEQQKMMIQLMGTIIQSATRR” is “failed”; for “MPIRDDISWPPSAVCSVSLILHLPGRFGHVSVAHLLLDHGADVNAQNRLGASVLTVASRGGHLGVVKLLLEAGAFVDHHHPSGEQLGLGGSRDEPLDITALMAAIQHGHEAVVRLLMEWGADPNHAARTVGWSPLMLAALTGRLGVAQQLVEKGANPDHLSVLEKTAFEVALDCKHRDLVDYLDPLTTVRPKTGQAACPPWLHRGPQIVFMWLKLRIALLEGHAELRVQPCRPLRLRKWCA” it is “not failed”; for “PEEQRQKLPDITAADPLEYKKQLLKLAISRIVFMRRFIADSLYYLPDVFFVTDKDNNIILLNKAAENLTAELGAQYHYRMPISTILNHLHNEEGHRINFDQVRNNEINSQCYAENGRAFDLRIAACRQVINQPDGWLIMLIDISAVKSAEEQRQRILHLLSHDMRSPQISILALIDRFSRTSC” it is “failed”.
Regarding “MSLLDAHIPQLIASHTAFAAKAGLMRHTIGQAEQQAMSAQAFHQGESAAAFQGAHARFVAAAAKVNTLLDIAQANLGEAAGTYVAADAAAASSYTGF”, the protein production result is reported as “failed”.
Then “MRTFTWRKGSLSKVNTCYVLAGGKSKRFGEDKLLYEIKGKKVIERVYETAKSVFKEVYIVAKDREKFSFLNAPVVLDEFEESASIIGLYTALKHAKEENVFVLSGDLPLMKKETVLYVLENFKEPVSVAKTEKLHTLVGVYSKKLLEKIEERIKKGDYRIWALLKDVGYNEVEIPEELRYTLLNMNTKEDLKRILAIENHY”, with “not failed”; and “MKSEKETIYDYAAELKLLSFKEELECTLSLAAEENWNHLQFLTELLGKESARRRECRRRSRIRSAGFPQMKYLHELVMEDMPKEAQVILPELETLDFIRQGRNLVLYGNPGTGKTHIATALGIKACQQDFTVLFTSVPVLLTQIREAKSAKTLRTLQLRFEKYDLVICDEFGYVSCDKEGGELLFNHLSLRAGKKATIITTNLAFNRWNEIIKDKVLVAAMVDRLTHKAYLVNMTGLSYRLKETQKMRQDKLEHHHHHH”, with “failed”; and “MKKTLILILCLFLCTVSFARKRVKVACVGNSITYGIGVSDPDKESYPARLQQMLGEGYTVERFGKPGATLLNKGHRPFMQQKEFKDALAFAGDVVVIHLGVNDTDPRDWPNYRDFFIADYRALIDSFRVANPECRILIARLTPIADRHPRFESGTRDWHDEIQLAIETIAKYAQVQLIDFHAPLYPYPFMLPDAVHPDKEGAAVLAKTVYEGITGDFGGLQMPEIYTDNMVLQHGRLLTIQGKADAGEKVTVSIDRQKLQAVTGADGKWAVDVRPLKAGGPYTLTVSTEKRKLVYENVLAGEVWLCSGQSNMEFYLNWSATAAQDVPQAANSNIRFYDMKARWRTDAVEWDASVLDSLNHLQYYKDTRWTVCSPETAGNFSAVAYYFGKKLQDSLQVPVGLICNAIGGSPTEAWIDRSTLEYRFPAILRNWMQNDFIQDWVRGRAALNVKQSSNKLQRHPYEPCYLYESGIRPLEQFPVKGFIWYQGESNAHNREAHEKLFGLLVESWRKNWGDAELPFYFVQLSSIDRPSWTWFRDSQRRLMAEIPHTGMAVSSDRGDSLDVHPKQKREVGERLAAWALNKTYGYKNVIPSGPLYKSVVFSGGAAYISFDYAEELSTSDGKSLRTFEVAGDDGLFYPAQAVVENGKIKVWSDKVKEPETVRYGWQPFTRANLVNGAGLPASTFRAE”, with “failed”.
For “MLLVGVAIAFLHKYIVLVVLTSILITACQGDIIDNPNLESNVPQSTDCRVVEHAVGKTKICGKPKKIAVLEPKMLSLMLALDVQPAAYADAYLVNAPQFDNPSQQIPYLGKYVTSQPINLGDRSSPSLEALTLLKPDLILGLNYQDNQLFSAIAPTVFIDNEQNWQESIKIVAKALDSQKNIPSIITSQQQQLAKVRAQLESLVSTHPRVLNIVCSQLMDYIEVTYNGNTIEILEKIGFQPVFLPDIERKPGLRPQITLETLAQLDADIVIVNTWVDNWNGKSTYTVPLKELKQKWAKNPLLHNSQAWKEGRVYFVDYTLWGNVIGAPIANALILEQLPSLLLSNTLKP”, the protein production result is “failed”.
As for “MAVAGAVSGEPLVHWCTQQLRKTFGLDVSEEIIQYVLSIESAEEIREYVTDLLQGNEGKKGQFIEELITKWQKNDQELISDPLQQCFKKDEILDGQKSGDHLKRGRKKGRNRQEVPAFTEPDTTAEVKTPFDLAKAQENSNSVKKKTKFVNLYTREGQDRLAVLLPGRHPCDCLGQKHKLINNCLICGRIVCEQEGSGPCLFCGTLVCTHEEQDILQRDSNKSQKLLKKLMSGVENSGKVDISTKDLLPHQELRIKSGLEKAIKHKDKLLEFDRTSIRRTQVIDDESDYFASDSNQWLSKLERETLQKREEELRELRHASRLSKKVTIDFAGRKILEEENSLAEYHSRLDETIQAIANGTLNQPLTKLDRSSEEPLGVLVNPNMYQSPPQWVDHTGAASQKKAFRSSGFGLEFNSFQHQLRIQDQEFQEGFDGGWCLSVHQPWASLLVRGIKRVEGRSWYTPHRGRLWIAATAKKPSPQEVSELQATYRLLRGKDVEFPNDYPSGCLLGCVDLIDCLSQKQFKEQFPDISQESDSPFVFICKNPQEMVVKFPIKGNPKIWKLDSKIHQGAKKGLMKQNKAV”, the protein production entry is given as “not failed”.
Then “MPRFSTACLDWESRIVNRESLIPFAPLFPTEAEAALDVFKSLQITDLPQVYDRKLGRHRHPTFGESCEQYVFDFVSAIFGAYDEESAKRVIEEFFLLISKKNIKSTLAAGIMLTALIRNWRHNQELLILAPTQEVAGNSFNPAASMVAADPDLTILLHVNKNTKEITHTLTKAVLKIVSADSNTAAGKKAAFVLIEELWLFGKKANAAAMLQEATGGLISRPEGFVIYITTQSDEPPAGVFKEKLDYFRDVRDGKIDDPTSLGVLYEFPDPMIDNEAYLDPANWYVTNPNMGRSVRKDWLERKLLKIQSGEDEEGDTWQSFLAKHLNVEIGMRQRGNRWPGANYWERAADPELAVLDHFAALDRFLERSEVVVVGVDGGGLDDLFGLTLVGREPDEIEIPVMVNGRESLVKMKRWLTWSHAWCHRDVLKRRKKIAPVLTDFDKAGHLTIVDAALEDLASIVDIIGTVKASGLLSSVAVDPAGLGEFVDALASPEIDITQENGLLVGVPQGFALMNAIKTAERRLSNGMLRHAGGPLMPWCVANLKIEPTATAIRATKQTAGDAKIDPAMALFDAVTMMVKNPEAPIASVYAERGIRVV”, with “failed”.
Then “MITFIGHVSKDVNVVDGKREIAYGGGVVMGAITSSLLGVKTKVITKCTREDVSKFSFLRDNGVEVVFLKSPRTTSIENRYGSDPDTRESFLISAADPFTESDLAFIEGEAVHINPLWYGEFPEDLIPVLRRKVMFLSADAQGFVRVPENEKLVYRDWEMKEKYLKYLDLFKVDSREAETLTGTNDLRESCRIIRSFGAKIILATHASGVIVFDGNFYEASFRSWSLEGRTGRGDTCTAAFLVGFVFKKMSIEKATKFAAAVTSVKMRHPGPLRREDLEAISGDQYF”, with “not failed”; and “VEPSEENSKDCVVCQNGTVNWVLLPCRHTCLCDGCVKYFQQCPMCRQFVQESFAL”, with “not failed”.
Then “MRFVVAFFWTFLLTQMACYIVGAMNGAGYDLQTSVIMGFIITAAVIVLGEIMPVKQDASQH”, with “failed”; and “MAVYNPKPEFFRQAVLSVLGQTMPVLELVLVNDGGSDEFKSVLPDDDRIRVFTKPNEGVAATRNFAIKQCRGEYIAFLDQDDYWYSDKLAEQMAMISVKGEACMVISPVDIVDNQGVPIIKQNRKKVTNRYFRKIAHPDIRFPLADGNFIYSSTPLIHRRVFECVGLFDSFTQPHDDWDMYLRIALAGISVHCYRERALSVWRMHDSNESQKRMAMMLSKCEVEWKILQGGVPEPVAKIMHSNLALDQIVMDNLWYNEREFARFRETVRRDLPGLMRCAVNSGRHDRYVTGYRKRAASAIIKSARRYLLSLFSRQR”, with “failed”.
In the case of “MLIEIPNVFSKQEVSHLREQLDARRWIDGNQTSGAMATTRKRNQQLDKDDPVAVALGQQIMDRLLAHPQFVSAALPLQFYPPLFNRYQGGETFGYHIDNAIRSTPDGMIRTDLSATLFLSEPENYQGGELVIQDTYGQQSIKLSAGSLVLYPSSSLHQVTPVLSGERTAAFMWLQSMVRDEGQRRLLFQLDQSIQSLTAQTAAEQELFNLSGVYHNLLRRWSEL”, the protein production result was “not failed”.
